This note sets out measurements from patent publication US20230151091A1 (NEW YORK UNIVERSITY, published 2023).

Test [1] addresses T1, mFz: Fz domain and C-terminal flanking sequence of mouse MuSK (D307 to T494) with C-terminal Avi- and … (mouse, UniProt Q61006 307-494, limits assumed, biotinylated in vitro using the BirA enzyme).
T1 construct: also called mouse Fz; not shown: Avi- and His6-tags
T1 sequence (looked up): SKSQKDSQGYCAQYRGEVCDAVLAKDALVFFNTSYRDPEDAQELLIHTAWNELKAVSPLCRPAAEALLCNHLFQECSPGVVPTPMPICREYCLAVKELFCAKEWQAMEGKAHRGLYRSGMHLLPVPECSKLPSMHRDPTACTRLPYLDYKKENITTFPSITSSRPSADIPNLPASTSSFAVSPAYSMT
The experiment in a line: bead-binding assay, IgG format: biotinylated antigen on streptavidin beads, flow cytometry, 1:1 fit; average ± s.d., n=3. In general terms: A flow cytometer gives signals particle by particle.

Test [2] concerns the target T2, hECD: full-length extracellular region of human MuSK (E22 to T495) with C-terminal Avi- and His6-tags (human, UniProt O15146 22-495, biotinylated in vitro using the BirA enzyme).
T2 construct: also called human ECD; not shown: Avi- and His6-tags
T2 sequence: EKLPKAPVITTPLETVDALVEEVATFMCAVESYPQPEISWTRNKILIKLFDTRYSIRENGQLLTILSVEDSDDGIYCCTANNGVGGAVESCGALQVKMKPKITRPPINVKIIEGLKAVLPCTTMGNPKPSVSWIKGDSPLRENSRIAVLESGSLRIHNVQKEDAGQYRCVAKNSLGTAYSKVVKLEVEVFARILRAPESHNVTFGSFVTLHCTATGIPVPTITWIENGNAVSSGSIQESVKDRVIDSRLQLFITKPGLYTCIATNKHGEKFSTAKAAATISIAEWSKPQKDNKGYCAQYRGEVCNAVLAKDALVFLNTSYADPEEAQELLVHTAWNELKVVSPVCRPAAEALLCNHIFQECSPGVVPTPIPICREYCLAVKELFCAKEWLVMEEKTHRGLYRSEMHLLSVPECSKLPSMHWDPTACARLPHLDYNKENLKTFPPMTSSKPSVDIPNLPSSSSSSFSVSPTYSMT
The test is described as above.

For test [3], the target named is T3, mECD: full-length extracellular region of mouse MuSK (E22 to T494) with C-terminal Avi- and His6-tags (mouse, UniProt Q61006 22-494, biotinylated in vitro using the BirA enzyme).
T3 construct: range 22-494; also called mouse ECD; not shown: Avi- and His6-tags
T3 sequence (looked up): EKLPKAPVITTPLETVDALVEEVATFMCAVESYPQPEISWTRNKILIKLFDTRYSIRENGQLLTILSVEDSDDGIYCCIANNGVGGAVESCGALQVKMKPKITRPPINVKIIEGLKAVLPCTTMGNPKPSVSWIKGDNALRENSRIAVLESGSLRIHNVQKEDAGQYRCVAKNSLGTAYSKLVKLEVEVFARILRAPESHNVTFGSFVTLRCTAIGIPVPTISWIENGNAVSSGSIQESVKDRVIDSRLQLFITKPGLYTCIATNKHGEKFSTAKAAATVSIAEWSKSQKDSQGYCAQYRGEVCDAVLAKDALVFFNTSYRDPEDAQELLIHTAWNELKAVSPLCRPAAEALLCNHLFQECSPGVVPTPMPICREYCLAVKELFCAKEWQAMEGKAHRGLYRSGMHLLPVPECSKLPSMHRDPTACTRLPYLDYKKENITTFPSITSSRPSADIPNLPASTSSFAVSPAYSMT
The test is described as above.

Test [4] addresses T4, hFz: Fz domain and C-terminal flanking sequence of human MuSK (K314-T495) with C-terminal Avi- and His6-tags (human, UniProt O15146 314-495, biotinylated in vitro using the BirA enzyme).
T4 construct: also called human Fz; not shown: Avi- and His6-tags
T4 sequence: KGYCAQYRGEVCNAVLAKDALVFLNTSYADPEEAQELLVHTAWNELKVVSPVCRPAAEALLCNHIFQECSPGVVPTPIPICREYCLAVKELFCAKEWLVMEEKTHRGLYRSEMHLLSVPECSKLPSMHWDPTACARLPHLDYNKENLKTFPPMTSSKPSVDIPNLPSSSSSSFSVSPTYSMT
The description is as above.

The target in test [5] is T1, mFz: Fz domain and C-terminal flanking …. The experiment in a line: bead-binding titration, IgG format: antigen immobilized on streptavidin beads, MFI by flow cytometry, curve is the 1:1 fit.
The target of test [6] is T3, mECD: full-length extracellular region …. The test is described as above.
For test [7], the target named is T5, human MuSK (human, UniProt O15146 24-495).
T5 construct: Recombinant protein coated on ELISA plates (R&D Systems cat. 10189-MK) or on the Biacore chip; also called human muscle-specific tyrosine protein kinase; full length human MuSK
T5 sequence: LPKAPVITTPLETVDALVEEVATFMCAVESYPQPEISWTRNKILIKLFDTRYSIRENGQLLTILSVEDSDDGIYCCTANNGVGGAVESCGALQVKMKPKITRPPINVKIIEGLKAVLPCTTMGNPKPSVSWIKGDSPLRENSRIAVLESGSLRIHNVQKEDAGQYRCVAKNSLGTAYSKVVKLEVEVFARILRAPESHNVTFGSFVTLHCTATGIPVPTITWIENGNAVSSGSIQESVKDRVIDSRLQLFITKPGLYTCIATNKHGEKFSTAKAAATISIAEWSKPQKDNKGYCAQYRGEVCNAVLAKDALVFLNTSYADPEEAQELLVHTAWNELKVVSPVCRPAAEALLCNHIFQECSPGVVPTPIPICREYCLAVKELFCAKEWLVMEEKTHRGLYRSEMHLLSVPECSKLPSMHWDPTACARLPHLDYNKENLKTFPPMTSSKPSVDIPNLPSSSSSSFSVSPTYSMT
The experiment in a line: Biacore T200, off rate at pH 5.5 against pH 7.4. As for the experimental part: (§1) In order to study pH dependent binding of the antibodies described herein to MuSK, a Biacore T200 was used. Briefly, a CMS chip was coated with human and mouse MuSK (200RU) and 22.2 nM of Fab was applied and kinetic parameters calculated. Association was done at pH7.4, dissociation was done at pH 7.4 and also at pH 5.5. The following Fabs were tested, X2, X2m4, X3, X9, X17, 3B2 and 3B2g2m1 (Table 10 and FIG. 23). […] Binding affinity at pH 5.5 is very low, resulting in a rapid dissociation at endosomal pH allowing 3B2g2m1 to recycle.
(In general: SPR reads the build-up and loss of mass on a sensor chip optically.)

The target of test [8] is T6, mouse MuSK (mouse, UniProt Q61006 22-494, limits assumed).
T6 construct: Coated on ELISA plates or on the Biacore chip; also called full length mouse MuSK; mouse MuSK (in house produced in HEK293 cells)
T6 sequence (looked up): T3 sequence (looked up)
As to the kind of experiment: Biacore T200, off rate at pH 5.5 against pH 7.4. The procedure:
as §1

Test [9] addresses T5, human MuSK. The experiment in a line: Biacore T200, MuSK on chip (200RU), 22.2 nM Fab, dissociation pH 5.5. The procedure: as §1
In test [10] the target is T6, mouse MuSK. The test is described as above. As for the experimental part: as §1
The target in test [11] is T5, human MuSK. The experiment in a line: Biacore T200, MuSK on chip (200RU), 22.2 nM Fab, dissociation pH 7.4. As for the experimental part: as §1
Test [12] has as its target T6, mouse MuSK. The test is described as above. The procedure: as §1
Test [13] deals with T1, mFz: Fz domain and C-terminal flanking …. As to the kind of experiment: bead-binding assay, Fab format: biotinylated antigen on streptavidin beads, flow cytometry, 1:1 fit; average ± s.d., n=3.
The target in test [14] is T2, hECD: full-length extracellular region …. Described as above.
Test [15] deals with T3, mECD: full-length extracellular region …. The description is as above.
For test [16], the target named is T4, hFz: Fz domain and C-terminal flanking …. Described as above.
Test [17] deals with T1, mFz: Fz domain and C-terminal flanking …. As to the kind of experiment: bead-binding titration, Fab format: antigen immobilized on streptavidin beads, MFI by flow cytometry, curve is the 1:1 fit.
For test [18], the target named is T4, hFz: Fz domain and C-terminal flanking …. The test is described as above.

Residue numbers refer to the chain shown, from its start.

B1: mIgG2a-X3 (antibody, V domains shown)
VH: EVQLVESGGGLVQPGGSLRLSCAASGFTISSSSIHWVRQAPGKGLEWVASISSSSGYTYYADSVKGRFTISADTSKNTAYLQMNSLRAEDTAVYYCARSWYEMWMSGYFGFDYWGQGTLVTVSS
VL: DIQMTQSPSSLSASVGDRVTITCRASQSVSSAVAWYQQKPGKAPKLLIYSASSLYSGVPSRFSGSRSGTDFTLTISSLQPEDFATYYCQQSSSSLITFGQGTKVEIK
notes: mouse IgG2a format; also called X3 in mouse IgG2a format
Usually Kd stands for the concentration at which binding is half-saturated. The low end stands for a tighter complex, the high end for a looser complex. As a reminder, the EC50 (read off the curve) is the midpoint of the concentration-response curve. High values mean lower potency in that assay, low ones higher potency in that assay. For B1, the Kd in test [1] stood at 0.096 nM; in [2] it was 0.113 nM; in test [3], 0.118 nM; in [4] it was 0.079 nM. For the same molecule, the “EC50 (read off the curve)” value in [5] and in test [6] was ~0.1 nM each time.

B2: hIgG1-X2 (antibody, V domains shown)
VH: EVQLVESGGGLVQPGGSLRLSCAASGFTVSSSSIHWVRQAPGKGLEWVASISSSYGSTSYADSVKGRFTISADTSKNTAYLQMNSLRAEDTAVYYCARSEGDRYVSGYMGMDYWGQGTLVTVSS
VL: B1 VL with S92G, S93V, S94W
notes: human IgG1 Fc containing LALA mutations; also called hIgG-X2; X2 in the human IgG1 format
On to B2, for which the Kd was determined as 0.265 nM in test [1], 0.478 nM in test [2], 0.307 nM in [3] and 0.421 nM in test [4]. Moreover, the half-maximal effective concentration (EC50 (read off the curve)) in [5] is ~0.3 nM; in test [6], ~0.4 nM.

B3: hIgG1-X3 (antibody, V domains shown)
VH: B1 VH
VL: B1 VL
notes: human IgG1 Fc containing LALA mutations; also called X3 in human IgG1 format
Regarding B3, the Kd in test [1] came to 0.07 nM; in test [2], 0.074 nM; in test [3], 0.079 nM; in [4] it was 0.057 nM. The “EC50 (read off the curve)” value in test [5] is ~0.07 nM; in test [6], ~0.08 nM.

B4: X17 Fab (Fab, V domains shown)
VH: EVQLVESGGGLVQPGGSLRLSCAASGFTISYSSIHWVRQAPGKGLEWVASIYSSSGSTYYADSVKGRFTISADTSKNTAYLQMNSLRAEDTAVYYCARGDHGYYVFGYLGMDYWGQGTLVTVSS
VL: DIQMTQSPSSLSASVGDRVTITCRASQSVSSAVAWYQQKPGKAPKLLIYSASSLYSGVPSRFSGSRSGTDFTLTISSLQPEDFATYYCQQSYKPGALITFGQGTKVEIK
notes: Fab format
As a reminder, the koff is the rate constant with which the complex falls apart. A high value points to a short-lived complex. For B4, the “Ratio pH 5.5/7.4 of off rate” value amounted to 7.7 in [7] and 1.7 in test [8]. The koff was found to be 0.00678 s⁻¹ in test [9], 0.002 s⁻¹ in test [10], 0.00088 s⁻¹ in test [11] and 0.0012 s⁻¹ in test [12]. The Kd in [13] was 0.47 nM; in test [14], 0.52 nM; in test [15] it was 0.63 nM; in [16], 0.38 nM. Further, the concentration giving a half-maximal response (EC50 (read off the curve)) was ~0.3 nM in test [17] and ~0.4 nM in test [18].
